Results published in PMC8571082, “Structural and thermodynamical insights into the binding and inhibition of FIH-1 by the N-terminal disordered region of Mint3” (The Journal of Biological Chemistry, 2021).
Residue numbers refer to the chain shown, from its start. One block for each binder: values may come before it.

Key:
Conditions in all cases: both partners purified
[1] = molecular target: T1, factor inhibiting HIF-1 (FIH-1) (human, UniProt Q9NWT6 1-349); assay: ITC; Mint3 construct in the syringe (150 μM, 25 injections of 1.5 μl) titrated into 30 μM FIH-1 in the cell; 25 °C; 35 mM Na-phosphate pH 7.5, 300 mM NaCl, 500 μM αKG; single set of sites model
T1 construct: N-terminal His6 tag and TEV site (ENLYFQ) cleaved with TEV protease; Dimer by SEC and SEC-MALS (about 80 kDa); also called FIH-1 WT; source: E. coli BL21 (DE3), purified (Ni-NTA, TEV cleavage, SEC); not shown: His6, N-terminal, cleaved

[2] = molecular target: T2, factor inhibiting HIF-1 (FIH-1), full-length (human, UniProt Q9NWT6 1-349); assay: ITC; MicroCal iTC200, 25 °C; 150 μM Mint3 in the syringe, 30 μM FIH-1 in the cell, 25 injections of 1.5 μl; 35 mM Na-phosphate pH 7.5, 300 mM NaCl, 500 μM αKG; single set of sites model; for Figure 4 also in the absence of αKG and/or with EDTA
T2 construct: Dimer by SEC and SEC-MALS; The TEV site ENLYFQ lay between the His6 tag and FIH-1; also called FIH-1 WT; source: E. coli BL21 (DE3), purified (Ni-NTA, TEV cleavage, SEC); not shown: His6, N-terminal, cleaved

FIH-1 E250A = molecular target: T3, FIH-1 E250A (human, UniProt Q9NWT6 1-349, Glu250 replaced with Ala); assay: as above
T3 construct: also called Glu250 replaced with Ala (negative control); source: E. coli BL21 (DE3), purified (mutants prepared as FIH-1); not shown: His6, N-terminal, cleaved

FIH-1 N171A = molecular target: T4, FIH-1 N171A (human, UniProt Q9NWT6 1-349, Asn171 replaced with Ala); assay: as above
T4 construct: also called Asn171 replaced with Ala; source: E. coli BL21 (DE3), purified (mutants prepared as FIH-1); not shown: His6, N-terminal, cleaved

FIH-1 E79A = molecular target: T5, FIH-1 E79A (human, UniProt Q9NWT6 1-349, Glu79 replaced with Ala); assay: as above
T5 construct: also called Glu79 replaced with Ala; source: E. coli BL21 (DE3), purified (mutants prepared as FIH-1); not shown: His6, N-terminal, cleaved

FIH-1 K75A = molecular target: T6, FIH-1 K75A (human, UniProt Q9NWT6 1-349, Lys75 replaced with Ala); assay: as above
T6 construct: also called Lys75 replaced with Ala; source: E. coli BL21 (DE3), purified (mutants prepared as FIH-1); not shown: His6, N-terminal, cleaved

FIH-1 Y71A = molecular target: T7, FIH-1 Y71A (human, UniProt Q9NWT6 1-349, Tyr71 replaced with Ala); assay: as above
T7 construct: also called Tyr71 replaced with Ala; source: E. coli BL21 (DE3), purified (mutants prepared as FIH-1); not shown: His6, N-terminal, cleaved

FIH-1 E29A = molecular target: T8, FIH-1 E29A (human, UniProt Q9NWT6 1-349, Glu29 replaced with Ala); assay: as above
T8 construct: also called Glu29 replaced with Ala (negative control); source: E. coli BL21 (DE3), purified (mutants prepared as FIH-1); not shown: His6, N-terminal, cleaved

FIH-1 D248A = molecular target: T9, FIH-1 D248A (human, UniProt Q9NWT6 1-349, Asp248 replaced with Ala); assay: as above
T9 construct: also called Asp248 replaced with Ala (negative control); source: E. coli BL21 (DE3), purified (mutants prepared as FIH-1); not shown: His6, N-terminal, cleaved
T9 sequence (Q9NWT6 whole entry D248A): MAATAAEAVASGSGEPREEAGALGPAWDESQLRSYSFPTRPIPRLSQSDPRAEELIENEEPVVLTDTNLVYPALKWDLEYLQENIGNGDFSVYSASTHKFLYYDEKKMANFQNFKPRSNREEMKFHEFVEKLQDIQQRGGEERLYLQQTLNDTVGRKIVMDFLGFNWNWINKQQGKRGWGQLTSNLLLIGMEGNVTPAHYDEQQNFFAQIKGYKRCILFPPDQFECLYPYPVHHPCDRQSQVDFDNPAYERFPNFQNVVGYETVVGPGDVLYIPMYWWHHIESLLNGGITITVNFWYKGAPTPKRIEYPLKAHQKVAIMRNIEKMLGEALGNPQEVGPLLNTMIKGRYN

T2 sequence (Q9NWT6 whole entry): as the sequence (Q9NWT6 whole entry D248A) above, with A248D counted along it
T1 sequence (Q9NWT6 whole entry): as the sequence (Q9NWT6 whole entry D248A) above, with A248D counted along it
T4 sequence (Q9NWT6 whole entry N171A): as the sequence (Q9NWT6 whole entry D248A) above, with N171A, A248D counted along it
T6 sequence (Q9NWT6 whole entry K75A): as the sequence (Q9NWT6 whole entry D248A) above, with K75A, A248D counted along it
T3 sequence (Q9NWT6 whole entry E250A): as the sequence (Q9NWT6 whole entry D248A) above, with A248D, E250A counted along it
T8 sequence (Q9NWT6 whole entry E29A): as the sequence (Q9NWT6 whole entry D248A) above, with E29A, A248D counted along it
T5 sequence (Q9NWT6 whole entry E79A): as the sequence (Q9NWT6 whole entry D248A) above, with E79A, A248D counted along it
T7 sequence (Q9NWT6 whole entry Y71A): as the sequence (Q9NWT6 whole entry D248A) above, with Y71A, A248D counted along it

- Kd [1]: 9000 ± 900 nM
B1: Mint3 fragment (1-92) (domain or fragment, human, UniProt O96018 1-92, looked up)
chain: MDFPTISRSPSGPPAMDLEGPRDILVPSEDLTPDSQWDPMPGGPGSLSRMELDESSLQELVQQFEALPGDLVGPSPGGAPCPLHIATGHGLA
notes: human Mint3 (X11gamma/APBA3), residues 1-92; source: E. coli BL21 (DE3), purified (mutants/fragments of Mint3 prepared as Mint3NT)

- stoichiometry N [2]: ~0.5
B2: Mint3 fragment (1–92) (domain or fragment, human, UniProt O96018 1-92, looked up)
chain: B1 chain
notes: source: E. coli BL21 (DE3), purified (mutants/fragments prepared as Mint3NT)

- Kd [2]: 650 ± 70 nM
- dH relative to Mint3NT [2]: ~0.5
- stoichiometry N [2]: ~0.5
B3: Mint3(1–117), N-terminal half of Mint3NT (domain or fragment, human, UniProt O96018 1-117, looked up)
chain: MDFPTISRSPSGPPAMDLEGPRDILVPSEDLTPDSQWDPMPGGPGSLSRMELDESSLQELVQQFEALPGDLVGPSPGGAPCPLHIATGHGLASQEIADAHGLLSAEAGRDDLLGLLH
notes: as for B2

- Kd [1]: 520 ± 20 nM
B4: Mint3NT, N-terminal fragment (1-214) of Mint3 (domain or fragment, human, UniProt O96018 1-214, looked up)
chain: MDFPTISRSPSGPPAMDLEGPRDILVPSEDLTPDSQWDPMPGGPGSLSRMELDESSLQELVQQFEALPGDLVGPSPGGAPCPLHIATGHGLASQEIADAHGLLSAEAGRDDLLGLLHCEECPPSQTGPEEPLEPAPRLLQPPEDPDEDSDSPEWVEGASAEQEGSRSSSSSPEPWLETVPLVTPEEPPAGAQSPETLASYPAPQEVPGPCDHED
notes: human Mint3 (X11gamma/APBA3), residues 1-214; also called 1-214 (NT); Mint3(1-214); source: E. coli BL21 (DE3), purified (Ni-NTA, SEC; monomer fraction)

- binding result (FIH-1 E250A): binds
- dH [2]: -32.2 ± 0.7 kcal/mol
- stoichiometry N [2]: 0.48 ± 0.02
- binding result (FIH-1 N171A): binds
- binding result (FIH-1 E79A): binds
- binding result (FIH-1 K75A): binds
- binding result (FIH-1 Y71A): binds
- binding result (FIH-1 E29A): binds
- binding result (FIH-1 D248A): binds
B5: Mint3NT, N-terminal fragment (1–214) of Mint3 (domain or fragment, human, UniProt O96018 1-214, looked up)
chain: B4 chain
notes: Mint3 (X11γ/APBA3), human, N-terminal fragment, residues 1-214; Uniformly 15N-labelled (M9 medium) for the NMR titration; No cleavage site is told for the C-terminal His6 tag; also called Mint3(1–214); 15N-Mint3NT; source: E. coli BL21 (DE3), purified (Ni-NTA, SEC; monomer fraction collected)

- Kd [2]: 1310 nM
- dH [2]: -13.9 kcal/mol
- stoichiometry N [2]: ~0.5
B6: Mint3NTmut, Mint3NT (1–214) with the mutations … → AAASAAAGRD (domain or fragment, human, UniProt O96018 1-214, looked up)
chain: B4 chain with G101A, L102A, L103A, E106A
notes: as for B2

- Kd [2]: 3000 ± 600 nM
- stoichiometry N [2]: ~0.5
B7: short peptide of Mint3 (93–117) (peptide, UniProt O96018 93-117, looked up)
chain: SQEIADAHGLLSAEAGRDDLLGLLH
notes: The methods say only that mutants/fragments of Mint3 were prepared as Mint3NT (E. coli, C-terminal His6); the results call this a peptide and speak of synthesis for the peptide 78-88, so it may be synthetic
